Values belong to the binder of their own block, whether it stands above or below them.
B1: PlexA1‐4‐mVenus (domain or fragment)
chain: QTLAANIWSDKTTAQNEPINLTNANAPIKNAKNLNSTITNVAAFDTKLNHLLVDTITGRVFVGGVNRLYQLSPDLELSETVKTGPQNDSVECSILDCPLNAVRSPTDNYNKVLLIDRATSRLIACGSLFQGTCTVRNLQNVSIIEHEVPDAVVANDANSSTVAFIAPGPPQHPVTNVMYVGVTYTNNSPYRSEIPAVASRSLEKTKMFQIASSAVTTGTRTFINSYARETYFVNYVYGFSSERFSYFLTTQLKHSHHSSPKEYITKLVRICQEDSNYYSYTEIPVECISDAQGGTKFNLVQAGFLGKPSSDLAQSLGISIQDDVLFAVFSKGEGNTPTNNSALCIYSLKSIRRKFMQNIKSCFNGSGMRGLDFISPSMPCVLTKLQTIGEDFCGLDVNSPLGGETPITSVPVAMFNTKLTSVAATSTSGYTVVFVGTSDGFLKKVVIESSSIANEYASFAVDLGSEINRDMQFDNQNLYIYVMSKTKVSKVKVFDCSDYKTCGDCLGARDPYCGWCSLENKCSPRSNCQDDANDPLYWVSYKTGKCTTITSVVPHQLQRTTARTLELIIDHLPQLKENLICAFTTEDKALFTNATKKRNGVNCTTPRTDMLPQIEQGKHHFTAKLSVRTRNGPDLVSTDFTFFDCSTHSSCTRCVSSEFPCDWCVEAHRCTHDTAENCRNDILVTGVSRIGPSYRSGPGFCPT

Experiments:
[1] = molecular target: T1, Sema1b_(ecto)‐mutB (Drosophila melanogaster, UniProt Q7KK54 37-659, loop 350–367 was replaced with 18 alanine residues); test: MST
T1 sequence: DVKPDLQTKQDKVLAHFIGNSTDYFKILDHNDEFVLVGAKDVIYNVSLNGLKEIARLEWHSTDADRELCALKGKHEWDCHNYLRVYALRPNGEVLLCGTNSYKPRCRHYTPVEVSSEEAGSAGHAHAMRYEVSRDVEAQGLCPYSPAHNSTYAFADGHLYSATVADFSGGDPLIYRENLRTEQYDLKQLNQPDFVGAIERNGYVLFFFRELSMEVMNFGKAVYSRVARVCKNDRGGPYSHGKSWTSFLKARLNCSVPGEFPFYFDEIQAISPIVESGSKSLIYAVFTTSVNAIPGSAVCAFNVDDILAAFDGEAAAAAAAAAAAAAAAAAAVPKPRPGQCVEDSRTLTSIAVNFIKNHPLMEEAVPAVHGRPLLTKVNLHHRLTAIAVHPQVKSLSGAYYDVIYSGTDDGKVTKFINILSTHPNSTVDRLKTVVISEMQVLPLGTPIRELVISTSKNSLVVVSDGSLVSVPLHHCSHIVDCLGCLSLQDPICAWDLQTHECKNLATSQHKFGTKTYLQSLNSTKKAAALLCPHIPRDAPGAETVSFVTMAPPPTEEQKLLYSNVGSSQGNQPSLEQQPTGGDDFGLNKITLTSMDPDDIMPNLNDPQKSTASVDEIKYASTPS

[2] = molecular target: T2, Sema1b_(ecto)‐mutA (Drosophila melanogaster, UniProt Q7KK54 37-659, F203E | Q219R | K223E); test: MST
T2 sequence: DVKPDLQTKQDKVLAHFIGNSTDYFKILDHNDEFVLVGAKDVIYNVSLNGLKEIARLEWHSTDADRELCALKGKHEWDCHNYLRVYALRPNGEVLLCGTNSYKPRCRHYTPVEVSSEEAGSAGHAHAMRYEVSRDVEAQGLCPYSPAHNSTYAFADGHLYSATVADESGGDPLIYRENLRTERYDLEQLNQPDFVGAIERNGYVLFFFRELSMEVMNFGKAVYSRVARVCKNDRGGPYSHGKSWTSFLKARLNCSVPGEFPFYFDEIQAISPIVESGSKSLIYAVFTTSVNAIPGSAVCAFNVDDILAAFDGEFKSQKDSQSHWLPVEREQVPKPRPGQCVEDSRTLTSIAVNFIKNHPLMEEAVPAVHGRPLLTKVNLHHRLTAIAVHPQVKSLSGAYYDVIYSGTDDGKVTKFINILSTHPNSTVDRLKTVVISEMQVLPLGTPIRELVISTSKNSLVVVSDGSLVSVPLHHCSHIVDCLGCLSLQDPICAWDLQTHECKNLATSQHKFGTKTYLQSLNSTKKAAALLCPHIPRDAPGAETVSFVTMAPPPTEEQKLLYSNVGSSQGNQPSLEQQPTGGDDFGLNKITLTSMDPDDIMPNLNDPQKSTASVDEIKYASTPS

[3] = molecular target: T3, PlexA1‐4 (Drosophila melanogaster, UniProt Q9V491 28-730); test: SEC-MALS; Superdex 200 10/300, 15 mM HEPES pH 7.8, 150 mM NaCl; single proteins injected at 2.0, 1.0 and 0.5 mg/ml; equimolar mixture of Sema1b1‐2 and PlexA1‐4; conditions: both partners purified
T3 construct: Plexin A (PlexA), Drosophila melanogaster, domains 1-4 (sema, PSI1, IPT1, PSI2), residues 28–730; also called PlexA domains 1-4; source: HEK 293T, transient transfection, purified (HisTrap, SEC); for crystallisation made with kifunensine, not deglycosylated
T3 sequence (looked up): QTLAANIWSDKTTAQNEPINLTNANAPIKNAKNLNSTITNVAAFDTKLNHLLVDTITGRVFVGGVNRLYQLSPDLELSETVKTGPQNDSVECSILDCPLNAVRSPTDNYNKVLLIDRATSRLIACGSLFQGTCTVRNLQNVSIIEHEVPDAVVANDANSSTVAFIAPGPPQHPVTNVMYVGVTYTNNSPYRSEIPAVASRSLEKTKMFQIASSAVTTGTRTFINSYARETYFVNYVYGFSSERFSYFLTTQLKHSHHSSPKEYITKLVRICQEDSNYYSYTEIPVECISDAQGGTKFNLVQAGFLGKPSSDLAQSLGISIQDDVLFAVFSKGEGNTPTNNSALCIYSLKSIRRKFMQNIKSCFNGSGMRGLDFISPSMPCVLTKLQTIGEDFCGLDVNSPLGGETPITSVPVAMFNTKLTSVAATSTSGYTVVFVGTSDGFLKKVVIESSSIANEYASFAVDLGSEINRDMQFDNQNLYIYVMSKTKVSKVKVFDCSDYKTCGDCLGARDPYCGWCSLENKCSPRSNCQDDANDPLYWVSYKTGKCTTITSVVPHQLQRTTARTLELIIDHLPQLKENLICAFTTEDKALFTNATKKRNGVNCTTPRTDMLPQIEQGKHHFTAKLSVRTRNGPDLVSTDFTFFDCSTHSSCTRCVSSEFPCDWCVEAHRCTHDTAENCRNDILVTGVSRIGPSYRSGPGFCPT

[4] = molecular target: B1; test: MST
[5] = molecular target: T4, PlexA1‐4‐mVenus (Drosophila melanogaster, UniProt Q9V491 28-730); test: MST; fluorescent PlexA1‐4‐mVenus kept constant, unlabelled Sema1b_(ecto) or mutants titrated; 28°C, 15 mM HEPES pH 7.4, 150 mM NaCl, 2 mM CaCl2, 0.05% Tween‐20; 80% MST power; conditions: both partners purified
T4 construct: Plexin A (PlexA), Drosophila melanogaster, domains 1-4, residues 28–730; monoVenus follows PlexA1-4 and is followed by the His6 tag; source: HEK 293T, transient transfection, purified (HisTrap, SEC); not shown: mVenus, C-terminal, kept
T4 sequence (looked up): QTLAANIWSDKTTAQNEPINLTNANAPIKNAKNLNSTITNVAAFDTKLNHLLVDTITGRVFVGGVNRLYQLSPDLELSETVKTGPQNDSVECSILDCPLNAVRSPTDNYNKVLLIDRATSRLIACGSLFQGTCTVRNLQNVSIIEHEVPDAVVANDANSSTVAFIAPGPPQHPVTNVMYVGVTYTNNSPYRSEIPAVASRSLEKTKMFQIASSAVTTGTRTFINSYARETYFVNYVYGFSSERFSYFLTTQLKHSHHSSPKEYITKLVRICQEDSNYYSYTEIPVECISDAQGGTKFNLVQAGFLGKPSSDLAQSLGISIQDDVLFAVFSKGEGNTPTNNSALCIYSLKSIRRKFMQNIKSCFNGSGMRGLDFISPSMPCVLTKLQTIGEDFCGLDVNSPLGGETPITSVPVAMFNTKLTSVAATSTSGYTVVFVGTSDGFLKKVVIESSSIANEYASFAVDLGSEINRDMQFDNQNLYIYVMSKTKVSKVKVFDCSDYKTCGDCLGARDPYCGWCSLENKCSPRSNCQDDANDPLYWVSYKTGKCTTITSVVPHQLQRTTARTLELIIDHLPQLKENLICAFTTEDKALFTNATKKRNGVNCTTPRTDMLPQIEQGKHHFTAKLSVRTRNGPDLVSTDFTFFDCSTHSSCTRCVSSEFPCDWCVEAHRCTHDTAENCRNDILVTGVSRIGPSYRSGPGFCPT

Binder: B1
- Kd [1]: 74 nM
- Kd [2]: 1240 nM

- stoichiometry N [3]: 1
B2: Sema1b1‐2 (domain or fragment, Drosophila melanogaster, UniProt Q7KK54 37-602, looked up)
chain: DVKPDLQTKQDKVLAHFIGNSTDYFKILDHNDEFVLVGAKDVIYNVSLNGLKEIARLEWHSTDADRELCALKGKHEWDCHNYLRVYALRPNGEVLLCGTNSYKPRCRHYTPVEVSSEEAGSAGHAHAMRYEVSRDVEAQGLCPYSPAHNSTYAFADGHLYSATVADFSGGDPLIYRENLRTEQYDLKQLNQPDFVGAIERNGYVLFFFRELSMEVMNFGKAVYSRVARVCKNDRGGPYSHGKSWTSFLKARLNCSVPGEFPFYFDEIQAISPIVESGSKSLIYAVFTTSVNAIPGSAVCAFNVDDILAAFDGEFKSQKDSQSHWLPVEREQVPKPRPGQCVEDSRTLTSIAVNFIKNHPLMEEAVPAVHGRPLLTKVNLHHRLTAIAVHPQVKSLSGAYYDVIYSGTDDGKVTKFINILSTHPNSTVDRLKTVVISEMQVLPLGTPIRELVISTSKNSLVVVSDGSLVSVPLHHCSHIVDCLGCLSLQDPICAWDLQTHECKNLATSQHKFGTKTYLQSLNSTKKAAALLCPHIPRDAPGAETVSFVTMAPPPTEEQKLLYSNVGS
notes: Semaphorin 1b (Sema1b), Drosophila melanogaster, domains 1-2 (sema, PSI), residues 37–602; also called Sema1b sema-PSI fragment; source: HEK 293T, transient transfection, purified (HisTrap, SEC); for crystallisation made with kifunensine and treated with endoglycosidase F1

- Kd [4]: 586 nM
- binding result [5]: binds
B3: Sema1b_(ecto) (domain or fragment, Drosophila melanogaster, UniProt Q7KK54 37-659, looked up)
chain: DVKPDLQTKQDKVLAHFIGNSTDYFKILDHNDEFVLVGAKDVIYNVSLNGLKEIARLEWHSTDADRELCALKGKHEWDCHNYLRVYALRPNGEVLLCGTNSYKPRCRHYTPVEVSSEEAGSAGHAHAMRYEVSRDVEAQGLCPYSPAHNSTYAFADGHLYSATVADFSGGDPLIYRENLRTEQYDLKQLNQPDFVGAIERNGYVLFFFRELSMEVMNFGKAVYSRVARVCKNDRGGPYSHGKSWTSFLKARLNCSVPGEFPFYFDEIQAISPIVESGSKSLIYAVFTTSVNAIPGSAVCAFNVDDILAAFDGEFKSQKDSQSHWLPVEREQVPKPRPGQCVEDSRTLTSIAVNFIKNHPLMEEAVPAVHGRPLLTKVNLHHRLTAIAVHPQVKSLSGAYYDVIYSGTDDGKVTKFINILSTHPNSTVDRLKTVVISEMQVLPLGTPIRELVISTSKNSLVVVSDGSLVSVPLHHCSHIVDCLGCLSLQDPICAWDLQTHECKNLATSQHKFGTKTYLQSLNSTKKAAALLCPHIPRDAPGAETVSFVTMAPPPTEEQKLLYSNVGSSQGNQPSLEQQPTGGDDFGLNKITLTSMDPDDIMPNLNDPQKSTASVDEIKYASTPS
notes: Semaphorin 1b (Sema1b), Drosophila melanogaster, ectodomain, residues 37–659; pHLsec vector; monomer in solution according to the authors' earlier work; also called Sema1b ectodomain; wild-type Sema1b_(ecto); source: HEK 293T, transient transfection, purified from conditioned medium (HisTrap, SEC)
